Key:
[1] = target: Neurocan-alkaline phosphatase (UniProt P55066 23-1268, chondroitin sulfate glycosaminoglycan chains); test: solid-phase binding assay
glypican-2-AP = target: T1, glypican-2-AP (UniProt Q8BKV1 22-556, heparan sulfate glycosaminoglycan chains); test: solid-phase binding assay
T1 sequence (looked up): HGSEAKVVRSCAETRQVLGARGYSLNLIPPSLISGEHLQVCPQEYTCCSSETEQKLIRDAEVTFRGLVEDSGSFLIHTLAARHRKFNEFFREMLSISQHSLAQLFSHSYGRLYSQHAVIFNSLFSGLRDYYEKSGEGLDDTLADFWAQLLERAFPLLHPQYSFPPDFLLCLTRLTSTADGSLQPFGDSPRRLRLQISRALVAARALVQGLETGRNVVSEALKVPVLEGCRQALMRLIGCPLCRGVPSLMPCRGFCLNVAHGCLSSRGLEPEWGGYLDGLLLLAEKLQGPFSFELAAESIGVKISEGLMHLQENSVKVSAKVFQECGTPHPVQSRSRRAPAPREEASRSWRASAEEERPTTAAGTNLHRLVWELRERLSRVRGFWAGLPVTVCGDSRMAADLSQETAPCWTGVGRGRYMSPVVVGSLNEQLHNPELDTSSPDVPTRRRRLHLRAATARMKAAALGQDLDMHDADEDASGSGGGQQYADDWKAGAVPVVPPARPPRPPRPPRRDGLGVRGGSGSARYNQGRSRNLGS

Neurocan-alkaline phosphatase, sequence (P55066 23-1268): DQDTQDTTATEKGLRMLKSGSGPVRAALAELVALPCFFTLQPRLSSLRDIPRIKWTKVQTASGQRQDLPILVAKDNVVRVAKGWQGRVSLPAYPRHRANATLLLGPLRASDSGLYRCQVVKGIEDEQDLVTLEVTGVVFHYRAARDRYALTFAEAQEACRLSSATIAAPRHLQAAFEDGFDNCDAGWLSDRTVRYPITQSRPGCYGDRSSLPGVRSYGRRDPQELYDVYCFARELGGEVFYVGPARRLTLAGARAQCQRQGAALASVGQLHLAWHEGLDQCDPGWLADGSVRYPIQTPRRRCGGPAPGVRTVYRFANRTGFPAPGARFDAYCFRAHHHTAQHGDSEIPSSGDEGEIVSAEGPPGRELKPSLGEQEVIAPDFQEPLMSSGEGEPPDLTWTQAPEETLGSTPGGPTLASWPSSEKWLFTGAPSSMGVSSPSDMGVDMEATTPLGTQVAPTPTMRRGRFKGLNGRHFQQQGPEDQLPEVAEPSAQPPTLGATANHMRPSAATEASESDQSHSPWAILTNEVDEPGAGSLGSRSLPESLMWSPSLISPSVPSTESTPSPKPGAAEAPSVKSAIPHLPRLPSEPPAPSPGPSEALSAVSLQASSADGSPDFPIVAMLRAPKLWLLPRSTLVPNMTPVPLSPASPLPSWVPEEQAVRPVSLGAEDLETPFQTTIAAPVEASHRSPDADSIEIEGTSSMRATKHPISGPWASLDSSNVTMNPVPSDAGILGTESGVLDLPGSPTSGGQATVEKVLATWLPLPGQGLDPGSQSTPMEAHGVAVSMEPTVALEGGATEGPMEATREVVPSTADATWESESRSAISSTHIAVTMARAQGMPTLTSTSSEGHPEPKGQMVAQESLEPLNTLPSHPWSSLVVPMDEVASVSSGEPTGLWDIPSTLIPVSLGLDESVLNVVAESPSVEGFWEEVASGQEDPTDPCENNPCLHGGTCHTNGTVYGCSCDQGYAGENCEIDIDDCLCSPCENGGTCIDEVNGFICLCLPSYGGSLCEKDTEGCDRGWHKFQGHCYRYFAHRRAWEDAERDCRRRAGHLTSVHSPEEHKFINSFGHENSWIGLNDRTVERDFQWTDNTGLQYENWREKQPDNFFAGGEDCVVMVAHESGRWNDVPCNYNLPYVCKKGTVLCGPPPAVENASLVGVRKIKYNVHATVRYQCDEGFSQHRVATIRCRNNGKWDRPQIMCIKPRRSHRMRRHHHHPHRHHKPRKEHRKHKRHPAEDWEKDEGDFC

B1: mouse RPTPσ sEcto-Fc (Fc fusion)
chain: EEPPRFIREPKDQIGVSGGVASFVCQATGDPKPRVTWNKKGKKVNSQRFETIDFDESSGAVLRIQPLRTPRDENVYECVAQNSVGEITIHAKLTVLREDQLPPGFPNIDMGPQLKVVERTRTATMLCAASGNPDPEITWFKDFLPVDPSASNGRIKQLRSGALQIESSEETDQGKYECVATNSAGVRYSSPANLYVRVRRVAPRFSILPMSHEIMPGGNVNITCVAVGSPMPYVKWMQGAEDLTPEDDMPVGRNVLELTDVKDSANYTCVAMSSLGVIEAVAQITVKSLPKAPGTPVVTENTATSITVTWDSGNPDPVSYYVIEYKSKSQDGPYQIKEDITTTRYSIGGLSPNSEYEIWVSAVNSIGQGPPSESVVTRTGEQAPASAPRNVQARMLSATTMIVQWEEPVEPNGLIRGYRVYYTMEPEHPVGNWQKHNVDDSLLTTVGSLLEDETYTVRVLAFTSVGDGPLSDPIQVKTQQGVPGQPMNLRAEAKSETSIGLSWSAPRQESVIKYELLFREGDRGREVGRTFDPTTAFVVEDLKPNTEYAFRLAARSPQGLGAFTAVVRQRTLQAISPKNFKVKMIMKTSVLLSWEFPDNYNSPTPYKIQYNGLTLDVDGRTTKKLITHLKPHTFYNFVLTNRGSSLGGLQQTVTARTAFNMLSGKPSVAPKPDNDGFIVVYLPDGQSPVTVQNYFIVMVPLRKSRGGQFPVLLGSPEDMDLEELIQDISRLQRRSLRHSRQLEVPRPYIAARFSILPAVFHPGNQKQYGGFDNRGLEPGHRYVLFVLAVLQKNEPTFAASPFSDPFQLDNPDPQPIVDGEEG
- Kd [1]: ~21 nM
- Kd (glypican-2-AP): ~10 nM
